The record followed here is patent US8304236B2, “Modified biotin-binding protein” (Japan Tobacco Inc., priority 2008, dated 2012).

In data set [1] the test system is human serum protein. Briefly: Non-specific adsorption of low-pI TM2 to human serum protein-immobilized magnetic beads. Format: binding. The note with it: wild type TM2 = 100. The procedure:
In this embodiment, non-specific binding to human serum was investigated as non-specific adsorption of low-pI TM2 to serum protein-immobilized magnetic beads. Specifically, in order to investigate the non-specific binding of low-pI TM2, the amount of low-pI TM2 adsorbed to magnetic beads to which human serum protein was covalently bonded was measured. TM2 K26A, TM2 K73Q, TM2 R104E, TM2 K141E, and TM2 R104EK141E, which were highly expressed in Escherichia coli, were used as the low-pI TM2 to be investigated.
Human serum protein and magnetic beads were bound to each other as follows. Magnetic beads having surfaces coated with carboxyl groups (Dynabeads M-270 Carboxylic Acid, Dynal, 210 μL) were washed with 0.01 N sodium hydroxide (210 μL) for 10 minutes and then with ultrapure water (210 μL) for 10 minutes three times. To the washed magnetic beads, 1-ethyl-3-(3-dimethylaminopropyl)carbodiimide hydrochloride (EDC, PIERCE) dissolved in cooled ultrapure water was added into a final concentration of 0.2 M, and the mixture was shaken at room temperature for 30 minutes. Then, the magnetic beads were washed with cooled ultrapure water (210 μL) and then with 50 mM MES buffer (pH 5.0, 210 μL).
To the magnetic beads, 1 mg/mL human serum protein (CHEMICON, 210 μL) dialyzed with 50 mM MES buffer (pH 5.0) was added. The mixture was shaken at room temperature for 30 minutes to covalently bind the human serum protein to the magnetic beads. The magnetic beads were collected with a magnet to remove the supernatant. The unreacted active groups on the beads were eliminated with 50 mM tris buffer (pH 7.0, 210 μL), and then the magnetic beads were blocked with a PBS buffer (420 μL) containing 0.5% BSA and 0.1% Tween 20. The magnetic beads were suspended in a PBS buffer (210 μL) to obtain human serum protein-immobilized magnetic beads.
The magnetic beads (7 μL) and 0.56 μg/mL of each low-pI TM2 (100 μL) were mixed for reaction at room temperature for 1 hour. The magnetic beads were collected with a magnetic, and the supernatant was removed. After washing with 20 mM potassium phosphate buffer (500 μL) containing 500 mM sodium chloride, the magnetic beads were mixed with 20 μL of 2×SDS sample buffer (250 mM Tris-HCl, pH 6.8, 20% 2-mercaptoethanol, 20% SDS, 20% glycerol), followed by heating at 95° C. for 20 minutes to dissociate the low-pI TM2 from the magnetic beads.
This sample was subjected to SDS-PAGE and then western blotting analysis to determine the amount of the low-pI TM2. Anti-tamavidin 2 rabbit antibody and alkaline phosphatase-labeled anti-rabbit IgG goat antibody were used as the primary antibody and the secondary antibody, respectively. The bands were detected with Alkaline Phosphatase Substrate Kit II <VECTOR Black> (VECTRO) and were quantified with Las-3000 (FUJIFILM).

In data set [2] the target is fibronectin (Homo sapiens, UniProt P02751). As to the kind of experiment: Non-specific binding to fibronectin (fibronectin-immobilized microplate, biotinylated HRP, A450). The note with it: absorbance at 450 nm. The procedure:
The fibronectin-binding of each low-pI TM2 was compared using a microplate to which fibronectin was immobilized. The concentration of fibronectin was adjusted to 50 μg/mL with a fixation solution exclusive for a New ELISA plate, and the fibronectin solution (50 μL) was added to each New ELISA plate (Sumitomo Bakelite), followed by shaking at 37° C. for 4 hours for immobilization. Then, the plate was washed with 0.1% Triton X-100-containing PBS (300 μL) three times and was then dried naturally.
TM2, K26A, K73Q, R104E, K141E, and R104EK141E mutants (50 μL each) were each added to the corresponding well of the plate and left at room temperature for 1 hour. The plate was washed with 300 μL/well of PBST (PBS buffer containing 0.1% Tween 20) three times. Then, biotinylated HRP diluted 5000 times with PBST containing 0.5% BSA was added at 50 μL/well and allowed to react with the mutant at room temperature for 1 hour. After washing with 300 μL/well of PBST three times, 50 μL/well of 1-Step Ultra TMB-ELISA solution was added to each well for color development. After termination of the color development with 50 μL/well of 2M sulfuric acid, absorbance at 450 nm was measured with an Infinite 200 microplate reader.
Non-specific binding of HALU TM2 to fibronectin was also investigated as in paragraph 1-10) of Example 1.

Data set [3] is described as follows: Heat stability of protein structure (soluble protein after heating, SDS-PAGE). The note with it: for Thermal stability (temp. at which 50% of protein was lost): heated for 20 minutes. The class given is physicochemical. The protocol: 3-8) Heat Stability of HALU TM2 Protein Structure Each of 0.2 μg/μL TM2 mutant solutions (10 μL (2 μg)) was heated at room temperature, 50, 60, 70, 80, 90, or 99° C. for 20 minutes. Then, the solution was centrifuged at 15000 rpm for 10 minutes, and the soluble protein in the supernatant was suspended in the same volume of 2×SDS sample buffer (250 mM Tris-HCl, pH 6.8, 20% 2-mercaptoethanol, 20% SDS, 20% glycerol). The suspension was heated at 95° C. for 10 minutes, followed by SDS-PAGE. The protein bands were detected by CBB staining A standard curve was prepared using a quantitative marker (LMW ELECTROPHORESIS CALIBRATION KIT; Pharmacia Biotech) with Las-3000 (FUJIFILM) to quantify the protein bands.

Chain of fibronectin (P02751 32-2477, species assumed): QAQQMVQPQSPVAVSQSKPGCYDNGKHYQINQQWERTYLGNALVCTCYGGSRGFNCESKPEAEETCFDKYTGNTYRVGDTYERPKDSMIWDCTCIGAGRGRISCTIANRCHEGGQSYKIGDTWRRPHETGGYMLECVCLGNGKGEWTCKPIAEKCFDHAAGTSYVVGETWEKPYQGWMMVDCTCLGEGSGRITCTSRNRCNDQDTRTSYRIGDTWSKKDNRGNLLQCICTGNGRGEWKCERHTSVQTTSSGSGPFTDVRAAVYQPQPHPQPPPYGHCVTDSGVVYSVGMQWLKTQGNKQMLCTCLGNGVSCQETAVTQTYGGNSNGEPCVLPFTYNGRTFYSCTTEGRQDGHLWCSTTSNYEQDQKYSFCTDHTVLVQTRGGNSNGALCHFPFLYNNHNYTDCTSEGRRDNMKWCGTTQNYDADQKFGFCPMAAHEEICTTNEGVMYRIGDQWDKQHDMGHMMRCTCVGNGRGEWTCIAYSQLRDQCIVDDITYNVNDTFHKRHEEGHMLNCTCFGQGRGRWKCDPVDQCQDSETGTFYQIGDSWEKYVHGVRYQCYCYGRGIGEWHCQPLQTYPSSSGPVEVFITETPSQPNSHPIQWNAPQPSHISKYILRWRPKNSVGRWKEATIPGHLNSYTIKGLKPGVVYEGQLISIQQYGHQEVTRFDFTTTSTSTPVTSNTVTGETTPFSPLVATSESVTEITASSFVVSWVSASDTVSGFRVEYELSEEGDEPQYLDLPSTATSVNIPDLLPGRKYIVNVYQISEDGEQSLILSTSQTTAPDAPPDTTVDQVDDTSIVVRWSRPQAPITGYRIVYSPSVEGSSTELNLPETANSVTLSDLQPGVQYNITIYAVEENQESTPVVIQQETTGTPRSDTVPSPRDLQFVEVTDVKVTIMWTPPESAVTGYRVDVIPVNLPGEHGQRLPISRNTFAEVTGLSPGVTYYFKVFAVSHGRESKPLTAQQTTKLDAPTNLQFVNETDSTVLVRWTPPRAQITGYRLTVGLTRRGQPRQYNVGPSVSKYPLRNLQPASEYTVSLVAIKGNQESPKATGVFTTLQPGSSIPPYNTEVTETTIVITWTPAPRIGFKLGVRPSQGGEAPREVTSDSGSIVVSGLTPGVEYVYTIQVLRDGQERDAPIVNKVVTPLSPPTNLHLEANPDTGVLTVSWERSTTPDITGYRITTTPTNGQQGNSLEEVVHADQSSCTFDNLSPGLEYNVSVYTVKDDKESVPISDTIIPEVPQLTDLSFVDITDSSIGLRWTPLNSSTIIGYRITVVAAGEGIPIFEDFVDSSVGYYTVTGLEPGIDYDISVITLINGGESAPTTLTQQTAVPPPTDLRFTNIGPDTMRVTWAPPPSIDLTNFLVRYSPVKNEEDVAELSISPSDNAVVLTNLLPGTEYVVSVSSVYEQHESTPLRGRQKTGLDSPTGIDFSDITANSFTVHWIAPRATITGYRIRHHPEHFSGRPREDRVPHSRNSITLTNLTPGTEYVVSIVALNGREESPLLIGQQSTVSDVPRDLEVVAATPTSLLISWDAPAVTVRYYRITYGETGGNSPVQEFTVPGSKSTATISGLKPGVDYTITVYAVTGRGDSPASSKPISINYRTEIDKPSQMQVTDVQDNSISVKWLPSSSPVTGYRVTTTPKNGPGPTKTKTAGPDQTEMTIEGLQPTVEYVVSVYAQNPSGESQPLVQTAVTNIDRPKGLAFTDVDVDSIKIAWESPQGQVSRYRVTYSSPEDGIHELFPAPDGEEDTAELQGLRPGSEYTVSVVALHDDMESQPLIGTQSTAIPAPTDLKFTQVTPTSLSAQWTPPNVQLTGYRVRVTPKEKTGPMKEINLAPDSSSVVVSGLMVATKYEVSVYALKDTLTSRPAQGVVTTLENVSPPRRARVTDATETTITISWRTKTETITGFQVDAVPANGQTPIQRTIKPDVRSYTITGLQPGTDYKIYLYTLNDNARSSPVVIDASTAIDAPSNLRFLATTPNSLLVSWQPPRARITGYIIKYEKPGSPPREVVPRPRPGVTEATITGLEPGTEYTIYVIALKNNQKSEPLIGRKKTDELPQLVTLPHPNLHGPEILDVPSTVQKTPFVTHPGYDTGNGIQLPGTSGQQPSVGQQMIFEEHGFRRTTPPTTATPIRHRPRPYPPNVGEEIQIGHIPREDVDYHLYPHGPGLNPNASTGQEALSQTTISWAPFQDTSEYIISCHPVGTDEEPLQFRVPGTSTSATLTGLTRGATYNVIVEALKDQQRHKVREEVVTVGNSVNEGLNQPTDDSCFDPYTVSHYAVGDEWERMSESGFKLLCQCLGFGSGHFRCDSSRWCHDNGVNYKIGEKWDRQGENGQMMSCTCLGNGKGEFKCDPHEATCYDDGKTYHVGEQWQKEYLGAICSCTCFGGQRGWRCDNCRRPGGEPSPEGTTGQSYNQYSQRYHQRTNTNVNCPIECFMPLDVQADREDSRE

B1: TM2: wild type tamavidin 2, biotin-binding protein from Pleurotus cornucopiae, amino acid sequence SEQ ID NO: 2 (protein, listed as Pleurotus cornucopiae)
chain: MSDVQSSLTGTWYNELNSKMELTANKDGTLTGKYLSKVGDVYVPYPLSGRYNLQPPAGQGVALGWAVSWENSKIHSATTWSGQFFSESSPVILTQWLLSSSTARGDVWESTLVGNDSFTKTAPTEQQIAHAQLHCRAPRLK
Turning to B1, the “Non-specific binding of serum protein (%)” value in data set [1] is reported as 100%. The “Binding of fibronectin (A450)” value in data set [2] (listed as wild type TM2) is given as 1.3 to 1.4. Moreover, the “Thermal stability (temp. at which 50% of protein was lost)” value in data set [3] is 87.5 °C; in data set [3] (listed as TM2WT), 86 °C.

B2: TM2 D40NR104EK141E: TM2 mutant having mutation of D40N and R104EK141E; SEQ ID NO: 24 (protein)
chain: MSDVQSSLTGTWYNELNSKMELTANKDGTLTGKYLSKVGNVYVPYPLSGRYNLQPPAGQGVALGWAVSWENSKIHSATTWSGQFFSESSPVILTQWLLSSSTAEGDVWESTLVGNDSFTKTAPTEQQIAHAQLHCRAPRLE
modifications: Synthetic TM2 D40NR104EK141E
For the molecule B2, the “Binding of fibronectin (A450)” value in data set [2] is “extremely low”; in data set [2] (listed as D40NR104EK141E), 0.12. Besides, the “protein remained after heating” value in data set [3] (heated at 99° C. for 20 minutes) was 78%. The “Thermal stability (temp. at which 50% of protein was lost)” value in data set [3] is 99 °C or.
